Reference: patent US20150329642A1 (Genmab, published 2015)

Key:
cMetECDHis [1] = target: T1, cMetECDHis (human, UniProt P08581 25-932, limits assumed, biotinylated in the cross-block ELISA of Example 17); experiment: cross-block ELISA; competitor 064
T1 construct: Expressed in HEK-293F cells; also called soluble cMetECDHis; biotinylated cMetECDHis
Method: (§1) First, the optimal coating concentrations of the tested anti-c-Met antibodies and the optimal cMetECDHis concentration were determined. Therefore, ELISA wells were coated overnight at 4° C. with anti-c-Met HuMabs serially diluted in PBS (8 μg/mL in 2-fold dilutions). Next, the ELISA wells were washed with PBST (PBS supplemented with 0.05% Tween-20 [Sigma-Aldrich, Zwijndrecht, The Netherlands]) and blocked for one hour at room temperature (RT) with PBSTC (PBST supplemented 2% [v/v] chicken serum [Gibco, Paisley, Scotland]). Subsequently, the ELISA wells were washed with PBST and incubated for one hour at RT with biotinylated cMetECDHis serially diluted in PBSTC (1 μg/mL in 2-fold dilutions). Unbound biotinylated cMetECDHis was washed away with PBST, and bound biotinylated cMetECDHis was incubated for one hour at RT with 0.1 μg/mL Streptavidin-poly-HRP (Sanquin, Amsterdam, The Netherlands) diluted in PBST.
(§2) ELISA wells were coated with anti-c-Met antibody at a sub-optimal dose as described above. After blocking of the ELISA wells, they were incubated with the predetermined concentration of biotinylated cMetECDHis in the presence of an excess of anti-c-Met antibody. The reaction was developed as described above. Residual binding was expressed as a percentage relative to the binding observed in the absence of competitor antibody.

cMetECDHis [2] = target: T1, cMetECDHis; experiment: cross-block ELISA; competitor 068
Method: as §1, §2

cMetECDHis [3] = target: T1, cMetECDHis; experiment: cross-block ELISA; competitor 045
Method: as §1, §2

cMetECDHis [4] = target: T1, cMetECDHis; experiment: cross-block ELISA; competitor 035
Method: as §1, §2

cMetECDHis [5] = target: T1, cMetECDHis; experiment: cross-block ELISA; competitor 008
Method: as §1, §2

cMetECDHis [6] = target: T1, cMetECDHis; experiment: cross-block ELISA; competitor 006
Method: as §1, §2

cMetECDHis [7] = target: T1, cMetECDHis; experiment: cross-block ELISA; competitor 181
Method: as §1, §2

cMetECDHis [8] = target: T1, cMetECDHis; experiment: cross-block ELISA; competitor 098
Method: as §1, §2

cMetECDHis [9] = target: T1, cMetECDHis; experiment: cross-block ELISA; competitor 024
Method: as §1, §2

cMetECDHis [10] = target: T1, cMetECDHis; experiment: cross-block ELISA; competitor 005
Method: as §1, §2

cMetECDHis [11] = target: T1, cMetECDHis; experiment: cross-block ELISA; competitor 069
Method: as §1, §2

cMetECDHis [12] = target: T1, cMetECDHis; experiment: cross-block ELISA; competitor 062
Method: as §1, §2

cMetECDHis [13] = target: T1, cMetECDHis; experiment: cross-block ELISA; competitor 101
Method: as §1, §2

cMetECDHis [14] = target: T1, cMetECDHis; experiment: cross-block ELISA; competitor G11-HZ
Method: as §1, §2

cMetECDHis [15] = target: T1, cMetECDHis; experiment: BLI (Octet); antibody captured, cMetECDHis in solution
Method: Antibody binding to cMetECDHis was analyzed by means of Bio-Layer Interferometry (BLI) technology on the Octet System (Fortebio, Menlo Park, USA). Anti-human IgG coated biosensors (Fc-specific) were used to capture anti-c-Met antibodies according to the procedure recommended by the manufacturer. cMetECDHis derived from HEK293 cells was loaded on top of the immobilized anti-c-Met antibodies by placing the loaded biosensor into a well containing 10 μg/mL cMetECDHis diluted in 10 times diluted kinetics buffer (Fortebio). The difference in reflection of light (AA, nm) of the biosensor surface due to the binding of cMetECDHis was measured in real time during approximately 10 minutes and was used by the Octet software (V4.0, Fortebio) to calculate the association constant (kₐ [1/M×s]). Next, the loaded biosensor was placed into a well containing only kinetics buffer (10 times diluted in PBS) to determine the dissociation constant (kd [1/s]). Kinetics analysis was performed to determine the affinity (KD [M]) using model 1:1 (langmuir). As a positive control, 0.2 μg/mL 5D5 IgG1 produced in HEK293 cells, was used.

cMetECDHis [16] = target: T1, cMetECDHis; experiment: cross-block ELISA; competitor 5D5
Method: as §1, §2

cMetECDHis [17] = target: T1, cMetECDHis; experiment: cross-block ELISA; competitor 058
Method: as §1, §2

B1: anti-c-Met HuMab 035 (IgG1) (antibody, V domains shown)
VH: EVQLVQSGAEVKKPGESLKISCKGSGYSFTSYWIGWVRQMPGKGLEWMGIIYPGDSDTRYSPSFQGQVTISADKSISTAYLQWNSLKASDTAMYYCARQEITGEFDYWGQGTLVTVSS
VL: AIQLTQSPSSLSASVGDRVTITCRASQGISSALAWYQQKPGKAPKLLIYDASSLESGVPSRFSGSGSGTDFTLTISSLQPEDFATYYCQQFNSYPMYTFGQGTKLEIK
notes: also called P1016-035; TH1016-035-D09
- residual binding, % of no competitor (cMetECDHis [1]): 132%
- residual binding, % of no competitor (cMetECDHis [2]): 175%
- residual binding, % of no competitor (cMetECDHis [3]): 125%
- residual binding, % of no competitor (cMetECDHis [4]): 10.6%
- residual binding, % of no competitor (cMetECDHis [5]): 7.2%
- residual binding, % of no competitor (cMetECDHis [6]): 33%
- residual binding, % of no competitor (cMetECDHis [7]): 159%
- residual binding, % of no competitor (cMetECDHis [8]): 126%
- residual binding, % of no competitor (cMetECDHis [9]): 121%
- residual binding, % of no competitor (cMetECDHis [10]): 36.7%
- residual binding, % of no competitor (cMetECDHis [11]): 151%
- residual binding, % of no competitor (cMetECDHis [12]): 120%
- residual binding, % of no competitor (cMetECDHis [13]): 113%
- residual binding, % of no competitor (cMetECDHis [14]): 7.8%
- Kd (cMetECDHis [15]): 13.9 nM
- koff (cMetECDHis [15]): 0.00368 s⁻¹
- kon (cMetECDHis [15]): 264000 M⁻¹ s⁻¹
- residual binding, % of no competitor (cMetECDHis [16]): 25.5%
- residual binding, % of no competitor (cMetECDHis [17]): 18.5%

B2: anti-c-Met HuMab 045 (IgG1) (antibody, V domains shown)
VH: EVQLLESGGGLVQPGGSLRLSCAASGFTFSSYAMSWVRQAPGKGLEWVSVISGSGGITYYADSVKGRFTISRDNSKNTLYLQMNSLRAEDTAVYYCARDRGWGSDYWGQGTLVTVSS
VL: EIVLTQSPATLSLSPGERATLSCRASQSVSSYLAWYQQKPGQAPRLLIYDASNRATGIPARFSGSGSGTDFTLTISSLEPEDFAVYYCQQRSNWPFTFGPGTKVDIK
notes: also called TH1016-045; PC1016-045
- residual binding, % of no competitor (cMetECDHis [1]): 104%
- residual binding, % of no competitor (cMetECDHis [2]): 113%
- residual binding, % of no competitor (cMetECDHis [3]): 21.3%
- residual binding, % of no competitor (cMetECDHis [4]): 105%
- residual binding, % of no competitor (cMetECDHis [5]): 98.5%
- residual binding, % of no competitor (cMetECDHis [6]): 111%
- residual binding, % of no competitor (cMetECDHis [7]): 99.4%
- residual binding, % of no competitor (cMetECDHis [8]): 76.4%
- residual binding, % of no competitor (cMetECDHis [9]): 102%
- residual binding, % of no competitor (cMetECDHis [10]): 111%
- residual binding, % of no competitor (cMetECDHis [11]): 97%
- residual binding, % of no competitor (cMetECDHis [12]): 103%
- residual binding, % of no competitor (cMetECDHis [13]): 102%
- residual binding, % of no competitor (cMetECDHis [14]): 99.3%
- Kd (cMetECDHis [15]): 2.87 nM
- koff (cMetECDHis [15]): 0.00207 s⁻¹
- kon (cMetECDHis [15]): 721000 M⁻¹ s⁻¹
- residual binding, % of no competitor (cMetECDHis [16]): 27.8%
- residual binding, % of no competitor (cMetECDHis [17]): 115%

B3: anti-c-Met HuMab 098 (IgG1) (antibody, V domains shown)
VH: QVQLVQSGAEVKKPGASVKVSCKASGYTFTNFGISWVRQAPGQGLEWMGWISAFNGHTDYSQKVQGRVTMTTDTSTSTAYMELRSLRSDDTAVFYCARSHYYGSGSPFDYWGQGTLVTVSS
VL: DIQMTQSPSSLSASVGDRVTITCRASQGISNWLAWYQQKPEKAPKSLIYAASSLQSGVPSRFSGSGSGTDFTLTISSLQPEDFATYYCHQYKSYPWTFGQGTKVEIK
notes: also called TH1016-098; PC1016-098
- residual binding, % of no competitor (cMetECDHis [1]): 9.3%
- residual binding, % of no competitor (cMetECDHis [2]): 18%
- residual binding, % of no competitor (cMetECDHis [3]): 96.7%
- residual binding, % of no competitor (cMetECDHis [4]): 89.4%
- residual binding, % of no competitor (cMetECDHis [5]): 99.8%
- residual binding, % of no competitor (cMetECDHis [6]): 97.9%
- residual binding, % of no competitor (cMetECDHis [7]): 12%
- residual binding, % of no competitor (cMetECDHis [8]): 2.6%
- residual binding, % of no competitor (cMetECDHis [9]): 12.9%
- residual binding, % of no competitor (cMetECDHis [10]): 99.6%
- residual binding, % of no competitor (cMetECDHis [11]): 3.4%
- residual binding, % of no competitor (cMetECDHis [12]): 8.8%
- residual binding, % of no competitor (cMetECDHis [13]): 4%
- residual binding, % of no competitor (cMetECDHis [14]): 99.6%
- Kd (cMetECDHis [15]): 1.82 nM
- koff (cMetECDHis [15]): 0.000297 s⁻¹
- kon (cMetECDHis [15]): 164000 M⁻¹ s⁻¹
- residual binding, % of no competitor (cMetECDHis [16]): 94.9%
- residual binding, % of no competitor (cMetECDHis [17]): 98.6%
